Data from the nanobody polyreactivity screen of Harvey et al. (2022).

Test: yeast display, Sf9 membrane polyspecificity reagent, FACS + sequencing; frameworks hold sequencing errors
How it was run: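 Synthetic nanobody libraries on Saccharomyces cerevisiae BJ5465 were galactose-induced for 36–48 hours, stained 1 hour at 4 °C with 10% biotinylated, detergent-solubilized Sf9 membrane reagent and enriched on streptavidin microbeads. FACS then separated cells into low and high (top ~1%) gates by anti-HA (expression) and streptavidin (reagent binding) fluorescence. Genes were colony-PCR amplified, MiSeq 2 × 250 sequenced and CDR-length filtered. A clone's polyreactivity label is that of its gate of origin.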

Row | Sequence | polyreactivity (PSR sort gate)
1 | QVQLVESGGGLVPAGGSLRLSCAASGSIFLAYAMGWYRQAPGKERELVAAITSIDGITSYADSVKGRFTISRDNAKNTVYLQMNSLTPEDTAVSYCAAPDGHWIRQWDTFEYWGQGTQVTVSS | low polyreactivity
2 | QVQLVESGGGLVQAGGSLRLSCAASGSTFGAYAMGWYRQAPGKERELVAAISKRGGSTYYADSVKGRFTISLDNAKNTVYLQMNSLKPEDTAVYYCATDHFSPTYGYWGQGTQVTVSS | low polyreactivity
3 | QVQLVESGGGIVQAGGSLRLSCAASGSIFSRKVMGWYRQAPGKDRELVAAISWSGSSTSYADSVKGRFTISRDTAKNTVYLQMNSLKPEDTAVYYCNRYFGQGYWGQGTQVTVSS | high polyreactivity
4 | QVQLVESGGGLVQAGGSLSLSCAASGLTFRSYTMGWYRQAPGKERELVAAISSGGSTYYADSVKGRFTISRDNAKNTVYLQMNSLKPEDTAVYYCAAPRGHGKYYSWGQGTQVTVSS | high polyreactivity
5 | QVQLVESGGGLVQAGGSLRLSCAASGFTFVGNAMGWYRQAAGKEWELVADITGSDGSTYYADSVKGRFTISRDNAKNTVYLQINSLKPEDTAVYYCAASPPYKLVWWRRMDYWGQGTQVTVSS | low polyreactivity
6 | QVQLVESGGGLVQARGSLRLSCAASGFTFSDYVMGWYRQAPGKERELVAVITSGSSTYYADSVKGRFTISRDNAKNTVYLQMNSLKPEDTAVYYCNADPDDGYFSDFDYWGQGTQVTVSS | low polyreactivity
7 | QVQLVESGGGLVQAGGSLRLICAASGSTFSYYTIGWYRTAPGKEMELVATISRRGASTYYADSVKGRFTISLDNAKNTVYLQMNSLKPEDTAVYYCAKSYYYGRSATRPEYDYWGQGTQVTVSS | high polyreactivity
8 | QVQLVESVGGLVQAGGSLRLSCAASGSIFTHNTMGWYRQAPGKERELVASIDSGASTNYADSVKGRFTISRDNAKNTVYLQMNSLKPEDTAVYYCAARDYDWGYPYYYWGQGTQVTVSS | low polyreactivity
9 | QVQLVESGGGLVQAGGSLRLSCAASGFTFGHYAMGWSRQAPGKERELVAAISKSGTRTYYADSVKGRFTISRDNAKNTVYLQMNSLKPEDTAVYYCATTAYNGYDHWGQGTQVTVSS | high polyreactivity
10 | QVQLVESGGGLVQAGGSLRLSCAASGSIFTYYAMGWYRQAPGKERELVAAISGSGGRTYYADSVKGRFTISRDNAKNPVYLQMNSLKPEDTAVYYCAVRSYRRFTHLYYRYDYWGQGTQVTVSS | high polyreactivity
11 | QVQLVESGGCLVQAGGSLRLSCAASGYTFRYNAMGWYRQAHGKERELVATITRGGSTNYADSVKGRFTISRDNEKNTVYLLMYSLKPEDPAVYYCNKEAAPLGFVPSYYGRDYWRQGTQVTVSS | low polyreactivity
12 | QVQLEESGGGLVQAGGSLRLSCSASGRIFSRNAMGWYRQAPGKERELVAAIRPRGGTTYYADSVKGRFTISRDNAKNTVYLQINSLKPYDTAVYYCATGGGRNSTDRRRLHYTYYYWGQGTQVTVSS | low polyreactivity
13 | QVQLVESGGGLVQAGGSLRLSCAASGSTFSSYAMGWYRQAPGKERELVAGIAWGGSSTDYADSVKWRFTISRDTAKNTVYLQMNSLKPEDTAVYYCARRYRRGWSTLDYWGQGTQVTVSS | low polyreactivity
14 | QVQLVESGGGLVQAGGSLRISCAASGYMFPWYTMGWYRQAPGKERELVAAITSGSSTYYADSVKGRFTISRDNAKNTVYLQMNSLKPEDTAVYYCNAYDDAYRLYRLRGRDYWGQGTQVTVSS | low polyreactivity
15 | QVQLVESGGGLVQAGGSLRLSCAASGIIFASNAMGWYRQAPGKERELVAAINRSGGSTYYADSVKGRFTISRDNAKNTVYLQMNSMKPEDTAVYYCAADYRFYSPTKYSYDYWGQGTLVTVSS | high polyreactivity
16 | QVQLVESGGGLVQAGGRLRLSCAASGSIFVYNALGWYRQAPGKQRELVAGITFIGGSTYYAESVKGRFTISRDNAKNTVYVQMNSRKPEDTAVYYCNKFPVSPPSYYWGQGTQVTVSS | low polyreactivity
17 | QVQLVESGGGLVQAGGSLRLSCAASGLTFILNAMGWYRQAPGKEREFVAAISRSGVRTYYADSVKGRFTISRDNAKNTVYLQMNSLKPEDTAVYYCARVAPASGVRWYYYWGQGTQVTVSS | high polyreactivity
18 | QVQLVESGGGLVQAGGSLRLSCAASGRTLRLYAMGWYRQAPGKERELVAAISSRGRTYYADSVKGRFTISRDNAKNTVYLQMNSLKPEDTAVYYCAVVVYQGFRSKYYYWGQGTQVTVSS | high polyreactivity
19 | QVQLVESVGGLVQAGGSLLLSCAASGGIFWVYAMGWYRQAPGKERELVAAISNSDTSTSYADSVKGRFTISRDNAKNTVFLQMNSLKPEDTAVYYCNADSPSLSGDYWGQGTQVTVSS | low polyreactivity
20 | QVQLVESGGGLVQAGGSLRLSCAASGITFSFYAMGWYRQAPRKERELVAGITRSGGDTYYADSVKGRFTISRDNAKNTVYLQMNSLKPEDTAVYDCADAWFFYRRQYTFFAGRMDYWGQGTQVTVSS | high polyreactivity
21 | QVQLVESGGGLVQAGRSLRLICAASGRTFTLNAMRWYRQAPGKERELVDAITWGAGSTYYADSVKGRFTISRDNAKNTVYLQMNSLKPEDTAVYYCAARFHGDYYRYRSPSMYYWGQGSQVTVSS | high polyreactivity

Row | Sequence | polyreactivity (PSR sort gate)
22 | QVQLVESGGGLVQAGGSLRLSCAASGRTVPGYVMGWYRQARGKERELVAAITSGGSTNYADSVKGRFTISRDNAKNTVYLQMNSLKPEDTAVNYCNADRNRWPWSVFTSEYWGQGTQVTVSS | low polyreactivity
23 | QVQLVESGGGLVQAGGSLRLSCAATGITFRYNAMGWYRLAPGKERELVAAITFSGGSTYYADSVKGRFTISRDNAKNTVYLQMNSLKPEDTAVYYCAKLGSTSSRGNYDYWGQGTQVTVSS | low polyreactivity
24 | QVQLVESGGGLVQAGGSLRLSCAASGGTFAGYAMGWYRQAPGKERELVAAISWSSGRTYYADSVKGRFTISRDIAKNSVYLQMNSLKPEETAVYDCTVLRYRGYDYWGQGTQVTVSS | high polyreactivity
25 | QVQLVESGGGLVQPGGSLRLSCAASGGTFQPNAMVWYRQAPGKERELVAAISWSDGSTYYADSVKGRFTISLDNAKNTVYLQMNSLKPVDTAVYYCAADFTYYDSPYRDYNYESWGQGTQVTVSS | low polyreactivity
26 | QVQLVESGGGLVQAGGSLRLTCAASGSIIVTYAMGWYRQAPGKERELVAVINSGTSTNYADSVKGRFTISRDNAKNTVYLQMNSLKPEDTAVYYCNADPLVYYYQDYRFCMGYWGQGTQVTVSS | low polyreactivity
27 | QVQLVESGGGLVQAGGSLRLSCAASGSIFGWYVMGWYRQEAGKERELVAANSSVGSTYYADSVKGRFTISRDNAKNTVYLQMNSLKPEDTAVYYCAKLRYPYLFWDDSEYWGQGTQVTVSS | low polyreactivity
28 | QVQLVESGGGLVQAGGSLRLSCAASGIIFSFYTMGWYRQAPGKERELGAAITWSGGSTYYADSVKGRFTISRDNAKNTVYLQMNSLKPEDTAVYYCARSQAVYDGWFAKFGYWGQGTQVTVSS | low polyreactivity
29 | QVQLVESGGGLVQAGGSLRLSCDASGSTFISYAMGWFRQAPGKERELVAAISSGGGRTSYADSVKGRFTISRDNEKNTVYLQMNSLKPEDTAVYYCNTKKLPYAEGYWGQGTQVTVSS | low polyreactivity
30 | QVQLVESGGGLVQAGGSLRLSCAASGRIYDDNAMGWYRQAPGKERELVAAISSGDSTKYADSVKGRFTISRDNAKNTVYLQMNSLKPDDTAVYSCAAERNHGLVGSESVGRNDYWGPGTQVTVSS | low polyreactivity
31 | QVQLVESGGGLDQAGVSLRLSCAASGRTFGGYAMGWYRQAPGKERELVASITSGGSTYYADSVKGRFTISRDNAKNTVYLQMNSLKPEDTAVYYCAADTYFETSTRAIPTNDYWGQGTQVTVSS | low polyreactivity
32 | QVQLVESGGGLVQAGGSLRLSCAASGRIFIYNAMGWYRQAPGKERELVAAISYSGGRTYYADSVKGRFTISRDNPKNTVYLQMNRLKPEDPAVYYCNAAYRISSAPGYFYFPYNYDYWGQGTQVTVSS | high polyreactivity
33 | QVQLVESGGGLVQAGGSLRLSCAASMGWYRQAPGKERELVAAITTRTGTTYYADSVKGRFTISRDNAKNTVYLQMNSLKPEDTAVYYCSKRGYYRYYYWGQGTQVTVSS | high polyreactivity
34 | QVQLVESGGGLVQAGGSLRLSCAASGFTIRRNAMGWYRQAPGKERELVAAISDRGGSTYYADSVKGRFTISRDTAKNTVYFQMTSLKPEDTAVYYCAAEPYAGPELDYWGQGTQVTVSS | high polyreactivity
35 | QVQLVESGGGLVQAGGSLSLSCAASGIFKYYMGWYRQAPGKERELVAGITKRGGSTYYADSVKGRFTISRDNAKNTVYLQKNSLKPEDTAVYYCNAVGPKRYDYWGQGTQVTVSS | high polyreactivity
36 | QVQLVESGGGLVQAGGSLRLSCAASGSIFNGNAMGWYRQAPGKERELVAAISRNRGSTYYADSVKGRFTISRDNAKNTVYLQMNSLKPEDTAVYYCPTDLTVYYSYYWMYWGQGTQVTVSS | low polyreactivity
37 | QVQLVESGGGLVQAGGSLRLSCAASGRIFSYYALGWYRQAPGKERELVAAISSRGGSTYYADSVKGRFTISRDNAKNTVYLQMNSLKPEDTAVYYCNAYVYQVIGHDYWGQGTQVTVSS | high polyreactivity
38 | QVQLVESGGGLVQAGGSLRLSCAASGRTFGWKARGWYRQAPGKEMELVAAISWSGTNTYDADSVKGRFTISRDNAKNTVYLQMNSLKPEDTAVYYCAARDWTGSWNGYWSWEYNYWGQGTQVTVSS | low polyreactivity
39 | QVQLVESGGGLVPAGGSLRLSCAASGYTFYFYAMGWYRQAPGKERELVAAITGGGTTSYADSVKGRFTISRDNAKNTVYLQMNSLKPEDTADSYCNVLFADKSDYWGQATQVTVSS | low polyreactivity
40 | QVQLVESGGGLVQAGGSLRLSCAASGLIFYRYAMGWYRQAPGKERELVATISSGGSTNYADSVKGRFTISRDNAKNTVYLQMNSLKPEDTAVYYCAASRWLYYYLFEYWGQGTQGTVSS | high polyreactivity
41 | QVQLVESGGGLVQAGGSLSLSCAASGSIFPHYAMGWYRQAPGKERELVAAISRGGSTNYADSVKGRFTISRDNAKNTVYLQMISLKPEDTAVYYCNARVYTKDYKRYDYWGQGTQVTVSS | high polyreactivity
